Source: patent US20020168363A1, “Integrin/adhesion antagonists” (Amgen Inc., priority 2000, published 2002)

Legend:
HT1080 cells = experiment: Effect on the growth of HT1080 cells; type: cell-based, human
Experimental: Laminin activity assay: Apoptosis of HT-1080 human fibrosarcoma cells. HT-1080 cells from a human fibrosarcoma are cultured in DMEM supplemented with 10% fetal bovine serum, 100 μg/ml streptomycin and 100 units/ml penicillin. The culture is started at a density of 5×10^4 cells per plate. The Fc-peptides (Fc-YIGSR, Fc-(YIGSR)2, YIGSR-Fc, or (YIGSR)2-Fc)) at various concentrations are added to each plate, and after 16 hours the cells are harvested for evaluation of apoptosis with crystal violet solution at 560 nm absorbance. The DNA fragmentation analysis is also carried out to assess the degree of apoptosis in a 1.5% agarose gel and visualized by ethidium bromide staining.
Two additional laminin peptides, (YIGSR)3 and (YIGSR)5 from Table 6 herein, were fused to human IgG1. Those fusion peptides were designated as laminin-3 ((YIGSR)3-Fc) and laminin-5 ((YIGSR)5-Fc). The purified peptide-Fc fusions were examined for their effect on the growth of HT1080 cells as described in Example 1. […] A 50-fold enhancement was seen after it was fused to human IgG1.

human αvβ3 = target: T1, human αvβ3 (Homo sapiens, UniProt P05106+P06756); experiment: Solid phase binding assay (Vitronectin-Ru, integrin coated paramagnetic beads); settings: FIGS. 4A and 4B
T1 construct: tissue Chemicon International Inc. (alternative source, catalogue number not given); host or cells: placenta
T1 sequence (P06756 31-889 limits assumed): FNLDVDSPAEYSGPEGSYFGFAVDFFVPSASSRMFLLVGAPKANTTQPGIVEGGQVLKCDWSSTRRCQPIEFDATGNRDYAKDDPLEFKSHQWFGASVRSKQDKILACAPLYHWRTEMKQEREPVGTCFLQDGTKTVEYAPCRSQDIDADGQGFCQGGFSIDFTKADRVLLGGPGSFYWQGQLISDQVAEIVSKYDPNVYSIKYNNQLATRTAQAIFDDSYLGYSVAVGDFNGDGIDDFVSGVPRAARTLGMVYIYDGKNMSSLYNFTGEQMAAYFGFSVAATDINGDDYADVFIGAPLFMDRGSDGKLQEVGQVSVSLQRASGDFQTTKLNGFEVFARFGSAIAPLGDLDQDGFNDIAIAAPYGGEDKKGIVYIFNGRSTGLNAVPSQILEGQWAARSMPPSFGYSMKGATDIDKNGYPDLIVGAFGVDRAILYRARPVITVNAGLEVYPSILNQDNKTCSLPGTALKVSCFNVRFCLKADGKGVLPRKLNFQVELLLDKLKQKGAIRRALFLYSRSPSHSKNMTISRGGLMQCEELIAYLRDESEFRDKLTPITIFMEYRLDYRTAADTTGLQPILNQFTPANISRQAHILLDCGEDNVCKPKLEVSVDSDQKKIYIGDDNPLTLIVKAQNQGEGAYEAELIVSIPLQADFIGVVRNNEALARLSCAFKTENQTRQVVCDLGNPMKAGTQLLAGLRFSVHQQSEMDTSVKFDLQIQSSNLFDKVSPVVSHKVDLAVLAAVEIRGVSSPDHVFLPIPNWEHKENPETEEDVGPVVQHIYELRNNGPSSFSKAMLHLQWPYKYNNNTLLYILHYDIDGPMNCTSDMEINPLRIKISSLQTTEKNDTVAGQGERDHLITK
T1 sequence (P06756 891-1048 partner limits assumed): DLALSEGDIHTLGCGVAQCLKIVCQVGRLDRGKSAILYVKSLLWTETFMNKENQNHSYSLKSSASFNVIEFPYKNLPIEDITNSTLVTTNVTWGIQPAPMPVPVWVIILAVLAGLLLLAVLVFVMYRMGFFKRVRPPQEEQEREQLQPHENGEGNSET
T1 sequence (P05106 27-788): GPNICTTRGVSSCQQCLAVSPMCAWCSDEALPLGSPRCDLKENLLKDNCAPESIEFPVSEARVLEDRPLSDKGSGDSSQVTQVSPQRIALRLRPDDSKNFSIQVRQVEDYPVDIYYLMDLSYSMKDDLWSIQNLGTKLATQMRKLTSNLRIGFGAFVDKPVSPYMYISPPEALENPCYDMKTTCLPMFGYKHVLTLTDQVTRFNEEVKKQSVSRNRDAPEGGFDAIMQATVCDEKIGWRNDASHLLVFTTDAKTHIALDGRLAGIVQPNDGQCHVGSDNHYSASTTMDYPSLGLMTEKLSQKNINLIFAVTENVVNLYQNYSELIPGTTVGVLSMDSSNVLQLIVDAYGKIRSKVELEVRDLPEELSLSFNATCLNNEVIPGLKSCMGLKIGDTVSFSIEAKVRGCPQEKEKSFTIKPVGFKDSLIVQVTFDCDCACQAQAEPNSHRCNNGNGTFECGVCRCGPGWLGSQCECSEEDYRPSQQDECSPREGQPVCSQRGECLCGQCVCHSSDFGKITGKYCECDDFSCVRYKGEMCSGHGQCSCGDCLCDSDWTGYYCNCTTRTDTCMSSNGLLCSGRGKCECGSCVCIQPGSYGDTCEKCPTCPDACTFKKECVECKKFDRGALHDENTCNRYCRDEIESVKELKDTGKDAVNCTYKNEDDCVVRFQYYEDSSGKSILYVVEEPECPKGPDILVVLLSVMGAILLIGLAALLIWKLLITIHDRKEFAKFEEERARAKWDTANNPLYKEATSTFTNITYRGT
Experimental: (§1) Ruthenylation of Vitronectin and Fibrinogen. Purified human vitronectin or purified human fibrinogen (Calbiochem) was dialyzed into 50 mM borate, 100 mM NaCl pH 8.0. A stock solution of ruthenium (II) tris bipyridine N-hydroxysuccinimide ester (Origen TAG® Ester, Igen Inc. Gaithersburg, Md.) was freshly prepared by adding 50 μL DMSO to 150 μg of the Origen TAG-NHS ester. Fifty microliters of the Origen TAG-NHS ester was added to one fifth molar ratio of the matrix protein. After one hour incubation at […], the reaction was quench by the addition of 50 μL of 2 M glycine. Unincorporated ruthenium and excess glycine were removed by dialysis into PBS, 0.05% NaN3. Protein concentrations were determined using Micro-BCA (Pierce, Rockford, Ill.). Origen TAG incorporation was assessed at 455 nm (e=13,700 M^−1 cm^−1). Vitronectin-Ru and Fibrinogen-Ru were stored at −70° C. until needed. […]
(§2) Solid Phase Binding Assay. […] The assay mixture was incubated at 25° C. for two hours with agitation and subsequently read on an Origen Analyzer® (Igen Inc. Gaithersburg, Md.) Non-specific binding was determined using 1 μM Vitronectin, 1 μM Fibrinogen or 5 mM EDTA. The data was prepared using a four-parameter fit by the Levenburg Marquardt algorithm (XLfit® ID Business Solutions.) Ki values were calculated using the equation of Cheng and Prusoff (1973) Biochem. Pharmacology 22: 3099-3108.

GPIIb/IIIa = target: T2, GPIIb/IIIa (Homo sapiens, UniProt P05106+P08514); experiment: Inhibition of ruthenium-labeled human fibrinogen (fibrinogen-ru) binding to GPIIb/IIIa, solid phase binding assay; settings: FIGS. 5A and 5B
T2 construct: The washed platelets were lysed in, 20 mM Tris-HCl pH 7.4, 140 mM NaCl, 2 mM CaCl2, 1 mM pefabloc, 3% octylglucoside; from tissue; host or cells: outdated platelets
Experimental: as §1, §2

## YIGSRYIGSRYIGSR [(YIGSR)3]
HT1080 cells
  IC100: 2.9 µM

## Echistatin-Fc: echistatin fused via a 5 glycine linker to the C-terminus of the Fc portion of human IgG1 (SEQ ID NO: 109)
Human αvβ3
  binding to human αvβ3: binds with high affinity
GPIIb/IIIa
  inhibition of fibrinogen-ru binding to GPIIb/IIIa: inhibition
